Measured values taken from the RNAGym collection of RNA variant scans (doi:10.1073/pnas.2313332121).
This sample holds only a part of the variants without activity.

B1: TPR 5TU (parent)
chain: GGAUCUUCUCGAUCUAACAAAAAAGACAAAUCUGCCACAAAGCUUGAGAGCAUCUUCGGAUGCAGAGGCGGCAGCCUUCGGUGGCGCGAUAGCGCCAACGUUCUCAACUAUGACACGCAAAACGCGUGCUCCGUUGAAUGGAGUUUAUCAUG

Variants of: B1
Assay: polymerase ribozyme fitness, log enrichment relative to wild type (log ratio); higher = more active; in vitro selection for triplet polymerase activity
Procedure, shortened: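 For each subunit of a heterodimeric triplet polymerase ribozyme, a mutant library was built by PCR and transcribed, then taken through a single in vitro selection round in triplicate. Selection involved annealing to a biotinylated primer, the partner subunit and triplets, incubation frozen at −7 °C, gel excision of extended constructs, capture on streptavidin beads and RT-PCR. Genotypes were retained after Illumina sequencing of inputs and outputs only with ≥10 input reads and ≥1 read in each output. Fitness is defined as the logarithm of a genotype's enrichment relative to wild-type enrichment, using inverse-variance-weighted averages across replicates, with the logarithm taken to base 2.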

Row | Variant | polymerase ribozyme fitness (log ratio)
1 | A28C U33G G50A C95A U134A | ≤ -4.2
2 | A26U A41C U44A G59A G126U G128A A137G | ≤ -4.2
3 | A26U U56A C93U | -3.4
4 | G25U A49C G88U A97G | ≤ -4.2
5 | A28G A106C G133U A142C | ≤ -4.2
6 | A28C C32G C63U | ≤ -4.2
7 | C27U U61G U82G A89U A91G G100A A113U G140U | ≤ -4.2
8 | A26G C32G A64G C103A | ≤ -4.2
9 | A26G G59U | -3.78
10 | A26U A89C C95U U104A A107G | ≤ -4.2
11 | A28U A47C C63G G86C C129A | ≤ -4.2
12 | A28U G58C C96A A97G U144A U145G | ≤ -4.2
13 | A28U A29G A40G C85G U90G U134G | ≤ -4.2
14 | A26C G59U A89C A113G C132G G141U | ≤ -4.2
15 | C27U A47U A49C G117A | ≤ -4.2
16 | A28G C57A U61A C76A G88A C93U U102G | ≤ -4.2
17 | A26U G86U | -3.84
18 | A28C A52G C76G A91U U146G | ≤ -4.2
19 | C27A A49C G59C G74C G136U | ≤ -4.2
20 | A28U A29G C32U C57G | ≤ -4.2
21 | C27U A60U | -1.43
22 | A26U C125A | -1.8
23 | A29C A52G C87U G100C A138U U139A A147C | ≤ -4.2
24 | C27U G68U G74U U77C G80C U104C C116G | ≤ -4.2

Row | Variant | polymerase ribozyme fitness (log ratio)
25 | C27U C75U | -1.25
26 | A26G A28U G42C G59C C96G C105G C116U | -4.04
27 | A26U U31A G86U A147C | ≤ -4.2
28 | C27U U55A C99G A138G | ≤ -4.2
29 | G25U U55G A73G A120C C123U | -3.39
30 | A26G U55G C87A A115U C118U C149G | ≤ -4.2
31 | A28G A41C G42U A66G C96G G133U U144G | -4.13
32 | C27A A60U A91U A106U | ≤ -4.2
33 | C27A U55A C76U A98G | ≤ -4.2
34 | A26U G84A C118A | -3.09
35 | C27U A41C G81U C96A | -2.31
36 | A26U G50C | ≤ -4.2
37 | A29C A52C C54U U82C U90A G136A | ≤ -4.2
38 | C27U G141C | -2.54
39 | A26G G88C A91C C93A C116U | ≤ -4.2
40 | A28U C87A C131G | ≤ -4.2
41 | C27U C93U | -3.3
42 | C27G A39G G83A G143U | ≤ -4.2
43 | C27G U56G | ≤ -4.2
44 | A28G G84U | -4.02
45 | A26C C63U C85A A120U | -3.53
46 | G25U U56A G84U C95A C96U A119C G141U U148C C149A | ≤ -4.2
47 | A26C C35U G88U C96G C108U G143A | ≤ -4.2
48 | A26G A29C G50A U90G | ≤ -4.2

Row | Variant | polymerase ribozyme fitness (log ratio)
49 | G25U C76G G92A A119U U145A C149A U151G | ≤ -4.2
50 | C27G C35G A64U A73G C79A C85G A91U | ≤ -4.2
51 | A28U G48C C54U G74U U77A G86U A98U C103G | ≤ -4.2
52 | A28U A40C C75U G83U G133A | ≤ -4.2
53 | A28C C57U G84A C96U G124U | ≤ -4.2
54 | A26U A28U G81C U90A | ≤ -4.2
55 | A26C A66C G81C G83C | -4.1
56 | C27U C85A A91U G143A | ≤ -4.2
57 | A26G C27U G46U G50U C75A | ≤ -4.2
58 | A28U U45A C57U A60C G84U A98U G117C | ≤ -4.2
59 | C27G G83A | -4.12
60 | A28G C32U G50A C85A | ≤ -4.2
61 | A28C A30U C35G C87A C105U | -3.84
62 | C27U C54U G58A A106G | -0.532
63 | A26U A40C C76A G92C A121C | ≤ -4.2
64 | C27A A40G U55A G83C | ≤ -4.2
65 | A26U U56A A98G | -1.83
66 | A26C C57U C85G G92U | ≤ -4.2
67 | C27A A60U G133A U135C A150U | ≤ -4.2
68 | C27U A39U U53A C93U | ≤ -4.2
69 | C27U U55A | -0.901
70 | G25U G34U A47C A89G | ≤ -4.2
71 | C27G C85A U90G | ≤ -4.2
72 | A26U G84C U145G | ≤ -4.2

Row | Variant | polymerase ribozyme fitness (log ratio)
73 | A26C A52C C54A C114A C129G U134A | ≤ -4.2
74 | A26C G50C G71U A73G | ≤ -4.2
75 | A26C A41G A47C C69G G83A C93U G124U | ≤ -4.2
76 | A26G C76A | -3.95
77 | A28U C95A | -3.41
78 | G25U C93A A147G | ≤ -4.2
79 | A26G G46A G48C C51U G71C C103U A120G C149G | ≤ -4.2
80 | A26C G86A C99U G141C | -3.84
81 | A28U G67A G74A G86C C108A C132A | ≤ -4.2
82 | A26C C36G C116A U148G | ≤ -4.2
83 | A26G G42U G48C G50U G84C C87G | ≤ -4.2
84 | A26G G42C C95U A150U | ≤ -4.2
85 | G25U A30G C51A C105U G133C | ≤ -4.2
86 | A28G C38A C54G G88C C103A | ≤ -4.2
87 | A26G A39G G42C A49G U55A U56A U130A U135G | ≤ -4.2
88 | C27G C51U C54A U78A G94C | ≤ -4.2
89 | A26G U44G A47C A49C C72G C76G A91C C103G C105G | ≤ -4.2
90 | C27U A39U A73G C79U C93A | ≤ -4.2
91 | A26G A73U C85A U151G | ≤ -4.2
92 | G25U C103G | -3.2
93 | C27G A37U A64C G88C A91C A120G A122U U148G | -4.09
94 | A28C G58C | ≤ -4.2
95 | A26G C75A G81A G140A U148C | ≤ -4.2
96 | A26G A60G | -3.55

Row | Variant | polymerase ribozyme fitness (log ratio)
97 | C27G C76A | -3.63
98 | A28U A39U | ≤ -4.2
99 | C27U C76U G83A | -1.55
100 | A28G C38U U61A G67U C85G A98G | -3.98
101 | C27U U44A G46A C54A C116G A147U | ≤ -4.2
102 | A26U A30U G48A | ≤ -4.2
103 | A26C A91G G136C | ≤ -4.2
104 | C27U A30G A52C | ≤ -4.2
105 | A28C A40U U53A G84U A115U | ≤ -4.2
106 | C27U G81U C85U | -2.15
107 | C27A C54G G67U G84C | ≤ -4.2
108 | A26C A52C C85U G117A A142G | -3.88
109 | A28C G84A C87G C96G A121U | ≤ -4.2
110 | A28U C54A G92U C118U G124U C131A A137U | ≤ -4.2
111 | A26U A52G C85U | -1.69
112 | C27U C35U A49U C51G U53A G86U U151G | ≤ -4.2
113 | A28G U33G G34U G59C U104G C118U | ≤ -4.2
114 | A28U G59U G74U C85G A113U C114A U127A | ≤ -4.2
115 | C27U C51U G83A | -2.56
116 | A29C A49C U61A A138C | ≤ -4.2
117 | A28U G88A A107G A142C U151A | ≤ -4.2
118 | C27U U45A G71A C75A A89U C118A | ≤ -4.2
119 | C27U A28U C76U U78G C93G A119G | ≤ -4.2
120 | C27A U44A C85A A107C U148C | ≤ -4.2

Row | Variant | polymerase ribozyme fitness (log ratio)
121 | C27U A40C U55A C114U U139G | -3.95
122 | G25U C38U | -1.98
123 | C27A C87U | -3.91
124 | A26G G83A G88A G94U C149G | -4.19
125 | A26C A37G A60U U90A G100C G141A C149U | ≤ -4.2
126 | A26C A60U A107C A115G | ≤ -4.2
127 | A29C A39C U53A A122G C123A U135G U146A | ≤ -4.2
128 | G25U C43A G58C A60C A91G | ≤ -4.2
129 | C27U A28U U53G C93A | ≤ -4.2
130 | C27U A37C G59U G92C G117C | -3.65
131 | C27U U56A G84U G86C C114G U145A | ≤ -4.2
132 | A26U G59C C103G A106C C132U | ≤ -4.2
133 | G25U A41G C93G A113U A150U | ≤ -4.2
134 | A26G C35G C57A G81C C87G | ≤ -4.2
135 | C27A G50U C57U A60C C116G U146G A147C | ≤ -4.2
136 | C27U U53A C85G | -3.88
137 | C27U C32A G46U A47C U53A C87G | ≤ -4.2
138 | A26U C43G C85G C132U | ≤ -4.2
139 | G25U G48C A52G C54G C57A A60G C96G U101G | ≤ -4.2
140 | A26U C36A G58C A89G G94U A138G | ≤ -4.2
141 | A26C U53A G58A | -2.74
142 | C27U C51U U53A U101G | -3.98
143 | C27G G62A A64G A73C G88U C99U A107U G124A U130C U148A | ≤ -4.2
144 | A29C A37C A64G C87A C95G U146G | ≤ -4.2

Row | Variant | polymerase ribozyme fitness (log ratio)
145 | A26U U33G G92A C95U U134G | ≤ -4.2
146 | A26G C27U A47G C54A U56G G86A | ≤ -4.2
147 | A26U U31C A52U A73G C87A A107G | ≤ -4.2
148 | A26U U53A | -1.58
149 | A26C C54G A121G | -2.79
150 | A26C C87U | -1.69
151 | C27G G58C G86A C105A U144A | ≤ -4.2
152 | C27U A40U G59U A107G C116A | ≤ -4.2
153 | A26U U55G G86C C96U A97C C99A U102G | ≤ -4.2
154 | A26U A49C | ≤ -4.2
155 | A26C C32G G34C U44A A107G C131U U139C U145C | ≤ -4.2
156 | C27G C57U A91U C95A C131G U134G G140A | ≤ -4.2
157 | C27U A41C C95U C125U | -2.83
158 | A26C U78A G84A G126C C149G | ≤ -4.2
159 | A26C A37U C79U A106U G143C U146A U148C | ≤ -4.2
160 | G25U C63G G88C C108U | -3.94
161 | C27A A30C A89G G92A C105U G140U | -3.96
162 | A26C G94A C131U | -1.51
163 | C27U A97U C116U A120C | -3.06
164 | A28U A147C U151C G152C | ≤ -4.2
165 | A26U C93U G117U A137C | ≤ -4.2
166 | A26U A73U A91U C96G A137C | ≤ -4.2
167 | C27U G50C C87A C105G | ≤ -4.2
